± gives the uncertainty stated by the source.

The nature of the data set: amyloid nucleation score (Sup35N fusion, yeast selection) (log enrichment); library NNK2; higher = more nucleation; inactive = no reads after selection. The procedure, abridged: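 Libraries of peptides of 20 random codons fused to Sup35N were expressed in psi-negative yeast and induced 24 hours with 100 μM copper sulfate. Selection was 7 days at 30°C on medium lacking adenine and uracil, and plasmid inserts were Illumina-sequenced before and after selection. Nucleation score is the DiMSum log enrichment of output over input reads, centred on the mode score of non-aggregating sequences, and sequences with under 100 input reads were left out.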

KFTSCAVNNDIMLLLVRVGF: the amyloid nucleation score is -1.61 ± 0.75. For SSHLGTFLSDRGKSWVSGND, the amyloid nucleation score is -0.569 ± 0.55. To QSAVICVGRCGNCHPPTEL belongs 2.87 ± 0.1; to YVCLFEFVMVCCDFTLFCKV, 0.585 ± 0.8; to SISRISPTQGIIGQTRFFYV, -1.14 ± 0.76. With YMYGVNNASSF the figure was 5.79 ± 0.054; with VACIFCLSSPHPC, 6.48 ± 0.084. In the case of DRLVGVTLYSTVYSDYSSSG, the amyloid nucleation score is -0.768 ± 1.1.

Substance VKPMMTFIATYGRYNHQFLS returned an amyloid nucleation score of 0.861 ± 0.43. With AISLYMFVRDIAKSILRQVC the figure was 0.269 ± 0.5. With NDCSGKDVVILQQE the figure was 0.192 ± 1; with GLSGFSPQFASATIAQSIP, 1.36 ± 0.23; with SLLHPFLTVGVCMCRYGVNI, 1.81 ± 0.083. For the substance HRSYCGFICASVLSAGPVHR, the amyloid nucleation score was -0.31 ± 1.1. To RIVVYMSLCQCL belongs 8.609 ± 0.076. On to VVYSSSFVAGLYDSMCWMWG, for which the amyloid nucleation score was found to be 1.49 ± 0.24. With VCSPIG the figure was 0.063 ± 0.45. With IIHYAFSRNWSP the figure was 1.54 ± 0.31; with LMFLGWASRNLVDKSTFKWI, -0.843 ± 0.79. With SWTSIVQIVILCGFRQWLAR the figure was 0.076 ± 0.39; with VATNCINMGS, -0.197 ± 0.79.

SSNYYVLCFTMPYWFYSLV registered an amyloid nucleation score of 1.02 ± 0.33. To TQSIALINTRVELTVDEFSF belongs -0.111 ± 0.65; to FMYWLGCYIRLLCDNLKQRG, -0.979 ± 0.49; to LFVLDNMDDIWNSIISWVGR, -0.295 ± 0.65. With LGTSWHHRAKE the figure was 3.31 ± 0.086; with FCLFW, “inactive”; with SGDHDGHEMRILRWSMLRYG, 1.56 ± 0.11. To RYENPLYVCDWGFGASLFRP belongs 0.237 ± 0.22; to TFRWCHCYLTKEHVRFTCRA, 1.55 ± 0.53; to NLFQRCREGDMVRNSSVLDG, -0.017 ± 1. The substance CKHDCETWWCSY had an amyloid nucleation score of 3.48 ± 0.058.

As to VPHHPRVGSLPIHNSAAPYM, the amyloid nucleation score was -0.683 ± 0.45.

Consider WFLHRGSIGYQTAFFCSYLP, for which the amyloid nucleation score is -0.208 ± 1.1. To ITISII belongs 0.044 ± 1.1. With ILIMRKENGCLRELCFFCRA the entry was “inactive”. For the substance TSISYLRVYTRSFMRSLSGL, the amyloid nucleation score result is “inactive”.

MDNHVLKFYRNDYKE had an amyloid nucleation score of 0.191 ± 0.65. To KFWYYIFCGLCMCYDFSKRR belongs 6.42 ± 0.084; to TPLDIICEIMNFIYNTVFRL, -0.501 ± 1.1; to HGGPS, -0.571 ± 0.38. To YMHILLLRFVQILTIRIVLL belongs -0.85 ± 0.37. To RIYFVEFMESWWGVGSLKEV belongs 3.51 ± 0.094; to SLLLFIYQMDRLVVASMLTN, -0.651 ± 1.1; to CWGHS, -0.792 ± 0.79. With DERSLLDLHYCR, the amyloid nucleation score worked out at 0.912 ± 0.43.

For the substance SAVHENVIGVFFGVLVYSNA, the amyloid nucleation score worked out at 2.42 ± 0.1. To GCGSNSDLLHPGIFGLCKLV belongs -0.3 ± 0.31.

NFFVFYIR: the amyloid nucleation score turned out to be 7.06 ± 0.072. With SELLRTLGALSFYMYSFIKH the figure was -1.98 ± 0.54. For the substance SKFWVARRCFASHLK, the amyloid nucleation score was -0.272 ± 1.1.

Turning to FCWRNCLNVIDTF, the amyloid nucleation score was -1.22 ± 0.35. For TLRVLCTVCYSMDRVAA, the amyloid nucleation score entry was “inactive”. To KRLVEAVKFWWQVRNGLKVR belongs 0.518 ± 0.29; to PDISKECLTIGNGSACELTD, 0.827 ± 0.28; to VDFRFMMHPSEEWMSNHLPR, 1.14 ± 0.24. To WIHMSFGRLNRYMVRMRGRM belongs -0.71 ± 1. As for YVSFMGNSNMFVKLFLRGCI, the amyloid nucleation score is 0.391 ± 0.2. With LRCFRACQTRRAFEVLLLEF the figure was -0.152 ± 1; with FRMWGLC, 0.43 ± 0.36. Take SCDIRRSLVSRAQICVCIVM: the amyloid nucleation score came out at 7.534 ± 0.071. To YFSGCSSFVS belongs -0.046 ± 0.49; to LFVALVGDLFCCWVCGSYGV, -1.43 ± 0.78; to VNYHLFVYAQWIVRKGFILL, -0.78 ± 0.44.

Substance LANKAYYVCLV showed an amyloid nucleation score of 0.022 ± 0.62.

The substance NTGFNCCNHFFRADGSLVEC showed an amyloid nucleation score of 3.39 ± 0.15. With IYFYKSGESFRAYPFAPGQW the figure was -1.37 ± 0.75.

Consider TCVRWYGNIW, for which the amyloid nucleation score is -0.424 ± 0.27. With LILALVPLLCWMVNGW the figure was -0.567 ± 1.1; with GYLVTLWD, 1.03 ± 0.49. With MSSSVHLGIFITQCVKTRQL the figure was 2.25 ± 0.22; with ISTTFV, 0.192 ± 0.79; with SGQYKENYGGFHHMLVRWRC, -0.042 ± 0.27. To SHLCHLGGSRRTQRVVEVSS belongs 5.72 ± 0.064; to MYTVGWHSTQCFLEDFGRTL, 3.13 ± 0.075; to EYMYYGFYCHYGSSVLAF, -0.731 ± 0.56.

For the substance YFSDLDAL, the amyloid nucleation score entry is “inactive”. To HVSKAVNLG belongs 0.52 ± 0.56; to LIRQMYMGRFYAVNRENH, -0.743 ± 0.79; to TRSSNNPPGMVDT, -0.959 ± 0.38. To LSKPDLRTGSDDMS belongs -0.297 ± 0.79; to TNKKVVRYPSPLPERSYGMR, 0.012 ± 0.74; to NATCPRHCRDHQGSYYRHCL, 0.499 ± 0.28.

Substance VLSCRSLSAQFSMPAFMEQS yielded an amyloid nucleation score of 0.972 ± 0.18. To STEAVMLQGVFHRSCCR belongs 0.761 ± 0.46. To RIPHHWMSVGLVIAPRLKSV belongs -0.365 ± 0.63. Consider LACLVIFMTVSDMDVLSGLF, for which the amyloid nucleation score was -0.39 ± 0.21. To RSEDGRGGSKGQIIRVVMNW belongs 4.76 ± 0.062; to ASGCLNLVCQNVCTSRSTNV, 8.954 ± 0.067; to KFSHQVEILPSGTSIGSCER, -0.111 ± 0.63. With IAYNMRNGH the figure was 0.949 ± 0.74. With ESFVRVLSFFCVSWYGSMVR the figure was 1.75 ± 0.24.

Regarding GVSIS, the amyloid nucleation score is -0.116 ± 0.76. Consider CSKMLTSNRVC, for which the amyloid nucleation score was -0.583 ± 1.1. To ISKLSARSLSRVVNLYKGVA belongs 0.85 ± 0.17; to VSLSLC, -0.288 ± 0.5. FMTSWTVYSSRAYLHENVGT registered an amyloid nucleation score of 1.08 ± 0.37. In the case of YCAFSMYMFKGIIRYAICVV, the amyloid nucleation score was -1.25 ± 0.38.

On to NAVFVFSRWWYISNVVPQK, for which the amyloid nucleation score is -1.48 ± 1.1. With FRLRMRSGYSARLSRFFCPL the figure was 2.51 ± 0.077; with SSTSLLNLPCWDRIFHTVRL, -0.429 ± 0.42. To NVPLFRSVSGDPVHHPLI belongs 2.41 ± 0.15. With IDCSFSFFVSPFRHPHSQED the figure was 4.87 ± 0.092; with MSSCLRL, 4.51 ± 0.056. Substance NLRYVFRFII returned an amyloid nucleation score of 2.9 ± 0.073. Take LVRMPRGTSFGRCNVCV: the amyloid nucleation score entry was “inactive”. With YEVTRRVSWAFDRMYCRVNR the figure was 0.101 ± 0.55. With YHEVFLTLSIEWRMMLWVG the figure was -0.318 ± 0.28. In the case of MFVGGGSSSTWLGNVWYVGS, the amyloid nucleation score was -0.337 ± 1.1.

Turning to NRSGEYRPLMMCVLGPLSTD, the amyloid nucleation score was determined as 0.687 ± 0.24. To NSPPVLLHMWRFRRRDTRRY belongs -0.551 ± 0.61. To EFLLNMAYSSGGSWTEVFRV belongs -0.005 ± 0.63; to YSFLWSVTATFDVTIISGCA, 3.1 ± 0.05; to FGVNDLYSDLW, -0.68 ± 0.25. With VLNVNDFPNYGRRSCSTNSF the figure was 3.18 ± 0.17; with CQAYSSIRFEVL, “inactive”; with KTSWVVYDGFRARDARSWRS, -0.245 ± 0.48.

As for HLGRG, the amyloid nucleation score was found to be 0.126 ± 0.45.

Turning to GSGIIHTVGLGV, the amyloid nucleation score was -0.153 ± 0.65.

As for QAHVQILYKL, the amyloid nucleation score stood at 5.95 ± 0.054. To LPVVLAGS belongs -0.191 ± 0.79. Regarding IPIIGITNEVPMSVRFPSIF, the amyloid nucleation score was -1.07 ± 0.55. PLERKRLSHCRWLGRRRLGG: the amyloid nucleation score came to 1 ± 0.34.

For the substance NTLSRYHFNGVRVYCEMTAL, the amyloid nucleation score result was “inactive”. For the substance SHGFFMAVEGLNCVRFVIIL, the amyloid nucleation score entry was “inactive”. To RIFQLSTSGN belongs 0.072 ± 1.1; to PQHYVMGYVCWDVSVVLRSP, 2.91 ± 0.092; to MACTFHVLTMGRFWSAWHRM, 0.598 ± 0.29. To SSRVVVLNYATRRGGQVSGR belongs 0.496 ± 0.38; to TWFCVGKVASSMWVYQGVNF, 0.662 ± 0.52. GRVMMEC yielded an amyloid nucleation score of 0.465 ± 0.33.

Regarding DFQIFYFARLFRTV, the amyloid nucleation score was -0.681 ± 0.79. To FINILKSSMLSVDWSLPIFN belongs “inactive”; to PLAVGRCGGIAYSVWCTVNL, 5.15 ± 0.078. To SDTVYLIFFSLAYNYVKRVT belongs -1.74 ± 0.41; to TLLYKFTDCTVMMAIRVARR, 1.45 ± 0.52; to SGFCQGGNSSRYMSII, 1.9 ± 0.27.

Turning to NEHGGLVNYGVCISGATYLA, the amyloid nucleation score worked out at 4.21 ± 0.097. With CGELY the figure was 0.506 ± 0.66; with TQLASIQPSVPCYIVYTVGL, 3.01 ± 0.085.
